According to patent US20240141038A1 (SHANGHAI QILU PHARMACEUTICAL RESEARCH AND DEVELOPMENT CENTRE, published 2024):

Tests used:
[1] = biological target: T1, Human NKp46 antigen for immunization, screening, and testing (Kactus, NKP-HM146) (human, UniProt O76036 22-255); assay: ELISA, coated antigen, VHH supernatant, anti-Myc HRP
T1 construct: Bought protein; also called human NKp46 antigen protein; human NKp46 protein
Method: (§1) In order to obtain positive antibodies that can cross-bind to human NKp46 and cynomolgus monkey NKp46, the above libraries were amplified and added into M13K07 helper phage and assembled into bacteriophages. 1×10¹² pfu of immune camel antibody library and immune alpaca antibody library were added thereto, and the phages were incubated with biotinylated human NKp46 protein (8 μg/mL) bound to magnetic beads for 1 h at room temperature. After washing off the unbound bacteriophages with 0.05% PBST, the phages specifically bound to NKp46 were eluted with […] triethylamine, and after gradient dilution of the bacteriophages above, E. coli SS320 in the logarithmic growth phase were infected. After being cultured overnight at 37° C. on plates containing ampicillin, single-clone was picked for IPTG-induced expression, and the supernatant was used for ELISA assay. ELISA plates were coated with […] human NKp46 antigen or cynomolgus monkey NKp46 antigen overnight at 4° C., then washed 3 times with 0.05% PBST and blocked with 5% skim milk at room temperature for 1 h, and washed 3 times with 0.05% PBST. Then 30 µL of induced supernatant was then added into per well, medium were added to negative control wells, the ELISA plates were incubated at room temperature for 1 h, and finally detected with anti-Myc HRP (VHH with his and c-Myc labels were expressed by the induction of IPTG. Sequence clones that had OD450 values of greater than 1.0 for binding to human NKp46 and cynomolgus monkey NKp46 as determined by ELISA, and of which the ratio of OD450 values to that of negative control were greater than 3 were sequenced, thereby obtaining amino acid sequences of 30 variable regions of heavy chain antibodies disclosed in the present disclosure, as shown in Table 2.

[2] = biological target: T2, Cynomolgus monkey NKp46 for immunization, screening, and testing (Kactus, NKP-CM146) (cynomolgus monkey, UniProt Q95JB9 22-254); assay: as above
T2 construct: Bought protein; also called monkey NKp46 antigen protein; cynomolgus monkey NKp46 antigen
T2 sequence (Q95JB9 other isoform, or with tags, fused parts or gaps limits assumed): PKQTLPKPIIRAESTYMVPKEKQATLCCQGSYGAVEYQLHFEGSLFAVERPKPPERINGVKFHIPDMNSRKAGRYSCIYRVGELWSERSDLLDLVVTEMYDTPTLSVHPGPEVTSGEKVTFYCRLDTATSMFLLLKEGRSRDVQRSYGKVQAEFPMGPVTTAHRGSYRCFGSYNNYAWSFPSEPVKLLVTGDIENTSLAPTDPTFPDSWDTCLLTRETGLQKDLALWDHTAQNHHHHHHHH
Method: as §1

T1 sequence (O76036 other isoform, or with tags, fused parts or gaps limits assumed): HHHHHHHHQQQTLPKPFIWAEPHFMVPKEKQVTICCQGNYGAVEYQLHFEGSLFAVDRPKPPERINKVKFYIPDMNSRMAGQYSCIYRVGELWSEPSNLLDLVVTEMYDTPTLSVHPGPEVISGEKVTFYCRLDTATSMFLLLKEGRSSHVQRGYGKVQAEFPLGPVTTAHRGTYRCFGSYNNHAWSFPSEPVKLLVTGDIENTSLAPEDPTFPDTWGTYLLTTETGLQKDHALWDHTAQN

Binder | OD450 [1] | ratio of OD450 to negative control [1] | OD450 [2] | ratio of OD450 to negative control [2]
NKp46-PC4 VHH (his and c-Myc labels) (VHH, IPTG-induced E. coli supernatant used in the screening ELISA; also called NKp46-PC4 clone supernatant; not shown: his and c-Myc labels) VHH: EVQLVESGGGSVQAGGSLRLSCTVSGYTGTIEYMGWGWFRQAPGKEREGVAYINTGGGTSVYDDSVKGRFTISKDDVNLTVYLQMNSLKPEDTAIYYCATGSFFGIWYKVPATQYFHYWGQGTQVTVSS | > 1 | > 3 | > 1 | > 3
NKp46-PC9 VHH (his and c-Myc labels) (VHH, IPTG-induced E. coli supernatant used in the screening ELISA; also called NKp46-PC9 clone supernatant; not shown: his and c-Myc labels) VHH: QVQLVESGGGSVQAGGSLRLSCAASGYTYRRYCMAWFRQGPGKEREGVACLDRDGSTTYADSVKGRFTISRDNANDTLYLQMNSLKPEDTALYRCAAAQPGDCWGRRYGFNTWGQGTLVTVSS | > 1 | > 3 | > 1 | > 3
NKp46-PA45 VHH (his and c-Myc labels) (VHH, IPTG-induced E. coli supernatant used in the screening ELISA; also called NKp46-PA45 clone supernatant; not shown: his and c-Myc labels) VHH: QVQLVESGGGLVQAGGSLRLLCAASGRTFSRLPMAWFRQGPGKDREFVAAISWSGGSTYYADSMKGRFTISRDNAKNTAYLQMNSLRLEDTAVYYCAAVGDSAPYSATIVYTDARAYAYWGQGTQVTVSS | > 1 | > 3 | > 1 | > 3
NKp46-PC6 VHH (his and c-Myc labels) (VHH, IPTG-induced E. coli supernatant used in the screening ELISA; also called NKp46-PC6 clone supernatant; not shown: his and c-Myc labels) VHH: DVQLVESGGGSVQAGGSLRLSCAASGYRSRHYCMGWFRQFPGKERERVALINTGGPTTFYADFVEGRFTISLDNAKNTLSLQMNSLKPEDTAMYYCAAGPPSSDSGSGCYVPEYMYNYWGQGTQVTVSS | > 1 | > 3 | > 1 | > 3
NKp46-PA63 VHH (his and c-Myc labels) (VHH, not shown: small tags and cut ends, also called NKp46-PA63 clone supernatant) VHH: EVQLVESGGGLVQPGGSLRLSCAASGRTSTSYAMGWFRQAPGKEREFVAAINRSGDFPYYADSVKGRFTIFRDNAKNTVYLQMSSVKPEDTGVYFCAAAPRAPATQVVISAFGYEYWGQGTQVTVSS | > 1 | > 3 | > 1 | > 3
NKp46-PA34 VHH (his and c-Myc labels) (VHH, IPTG-induced E. coli supernatant used in the screening ELISA; also called NKp46-PA34 clone supernatant; not shown: his and c-Myc labels) VHH: QVQLVESGGGLVQTGGSLRLSCAASGSTSSFYRMGWFRQAPGKEREAVARISSSAGLIYYVDSVKGRFTISRAGAKNTVYLQMNSLKPEDTAVYYCAADRHGTRWDYWGQGTQVTVSS | > 1 | > 3 | > 1 | > 3
NKp46-PC11 VHH (his and c-Myc labels) (VHH, IPTG-induced E. coli supernatant used in the screening ELISA; also called NKp46-PC11 clone supernatant; not shown: his and c-Myc labels) VHH: DVQLVESGGGSVQAGGSLRLSCAPSPYSANSFSMAWFRQVPGKEREGIACIQAESGSTNVAPSVKGRFSISQDNAKNTLYLQMNNLKPEDTAMYYCAAFKRNVGGCELRPEHWRFWGQGTLVTVSS | > 1 | > 3 | > 1 | > 3
NKp46-PC1 VHH (his and c-Myc labels) (VHH, IPTG-induced E. coli supernatant used in the screening ELISA; also called NKp46-PC1 clone supernatant; not shown: his and c-Myc labels) VHH: QVQLVESGGGSVQAGGSLTLSCATSGYTYRTDCMGWFRQAPGKEREGLATIYTSDGRTDYANSVKGRFTISQDNAKNTLYLHMNNLKPEDTAIYYCAADPQYGGVCPSGGWNYWGQGTQVTVSS | > 1 | > 3 | > 1 | > 3
NKp46-PC7 VHH (his and c-Myc labels) (VHH, IPTG-induced E. coli supernatant used in the screening ELISA; also called NKp46-PC7 clone supernatant; not shown: his and c-Myc labels) VHH: EVQLVESGGGSVQAGGSLRLSCAASGYTYRTDCMGWFRQAPGKEREGLATIYTSDGRTAYADSVKGRFTISQDNAKNTLYLDMNTLKPEDTAMYYCAADLQYGGSCPSGGWKYWGQGTLVTVSS | > 1 | > 3 | > 1 | > 3
NKp46-PC12 VHH (his and c-Myc labels) (VHH, IPTG-induced E. coli supernatant used in the screening ELISA; also called NKp46-PC12 clone supernatant; not shown: his and c-Myc labels) VHH: QVQLVESGGGSVQTGGSLRLSCTAPGFTTDSCGMDWYRQAAGKQREWVSRIRPDGRTDYVESVKGRFTISEDKAKYTVYLQMNSLKPEDTAMYSCTTWGLCTAKFRWGQGTQVTVSS | > 1 | > 3 | > 1 | > 3
NKp46-PC13 VHH (his and c-Myc labels) (VHH, IPTG-induced E. coli supernatant used in the screening ELISA; also called NKp46-PC13 clone supernatant; not shown: his and c-Myc labels) VHH: DVQLVESGGGSVQAGGSLRLSCAASGYTRSIYYMGWFRQAPGKEREGVAVMHTGGGSTYYTDSVKGRFTISQDNAKNTVYLQMNSLKPEDTAMYYCAASKYLLAFGGVEWILRPAGGWDYWAQGTQVTVSS | > 1 | > 3 | > 1 | > 3
NKp46-PC16 VHH (his and c-Myc labels) (VHH, IPTG-induced E. coli supernatant used in the screening ELISA; also called NKp46-PC16 clone supernatant; not shown: his and c-Myc labels) VHH: DVQLVESGGGLVQPGGSLRLSCAISGFTFSIVSMSWVRQAPGKGPERVSWINGDSSNTSYADSVKGRFTISRDNARNMLYLQMNSLKSEDTARYYCTTQNSHYDIRFGYWGQGTQVTVSS | > 1 | > 3 | > 1 | > 3
NKp46-PA40 VHH (his and c-Myc labels) (VHH, IPTG-induced E. coli supernatant used in the screening ELISA; also called NKp46-PA40 clone supernatant; not shown: his and c-Myc labels) VHH: QVQLVESGGGLVQAGGSLRLSCAASGRTFSRYSMGWFRQAPGKEREFVAAISSSGDVTHYADSAKGRFIISRDNAKNTVSLQVNSVNLEDTAVYYCAASLTARATTVTVHPNGYNYWGQGTQVTVSS | > 1 | > 3 | > 1 | > 3
NKp46-PC8 VHH (his and c-Myc labels) (VHH, IPTG-induced E. coli supernatant used in the screening ELISA; also called NKp46-PC8 clone supernatant; not shown: his and c-Myc labels) VHH: EVQLVESGGGSVQAGGSLRLSCAVSRGSMASTGCMAWFRQTPGKEREAVAIINISGTTRYTDSVKGRFTIAQDSAKNTLTLQMNSLKPEDTGMYYCAATQNPRTVGRGYCTGDYFQVGGGGYSFWGQGTQVTVSS | > 1 | > 3 | > 1 | > 3
NKp46-PA69 VHH (his and c-Myc labels) (VHH, IPTG-induced E. coli supernatant used in the screening ELISA; also called NKp46-PA69 clone supernatant; not shown: his and c-Myc labels) VHH: QVQLVESGGGLIQAGGSLRLSCVASERSLTLYAMGWFRQAPGLEREFVAGISRTGDTTYSPDSVKGRFTISRDNAKNVLYLQMNSLKPDDTAVYYCAASATYSATNIYTHQRAYGDWGQGTQVTVSS | > 1 | > 3 | > 1 | > 3
NKp46-PA31 VHH (his and c-Myc labels) (VHH, IPTG-induced E. coli supernatant used in the screening ELISA; also called NKp46-PA31 clone supernatant; not shown: his and c-Myc labels) VHH: DVQLVESGGGLVQAGDSLRLSCAVSGRTFSRLPMGWFRQGPGKDREFVAAISWSSSTTYYADSVKGRFFISRDNAKNTAYLQMNNLRLEDTAVYYCAAVGGSLDYSATVVYTAARAYADWGQGTLVTVSS | > 1 | > 3 | > 1 | > 3
NKp46-PC3 VHH (his and c-Myc labels) (VHH, IPTG-induced E. coli supernatant used in the screening ELISA; also called NKp46-PC3 clone supernatant; not shown: his and c-Myc labels) VHH: DVQLVESGGGSVEAGGSLRLSCAASGYRQRTMGWFRQAPGKAREGVACIYTGPTTTFTDYADSVKGRFTITQDNAKNTVYLQMNSLKPEDTAMYYCAANLAYPLTIIPDTRWGQGTQVTVSS | > 1 | > 3 | > 1 | > 3
NKp46-PA36 VHH (his and c-Myc labels) (VHH, IPTG-induced E. coli supernatant used in the screening ELISA; also called NKp46-PA36 clone supernatant; not shown: his and c-Myc labels) VHH: QVQLVESGGGLVQAGGSLRLSCAASGRSFSRYAMGWFRQAPGKERDFVAAISSSGDPTYYADSVKGRFTISRVNAKNTVYLQMNSVNPGDTAVYYCAAGLTARDTTVVVHPNGYSYWGQGTQVTVSS | > 1 | > 3 | > 1 | > 3
